From US11505783B2, “Differentiation of human embryonic stem cells” (Janssen Biotech, Inc., priority 2007, dated 2022) come the findings set out here.

Where two headings read alike, the source gives them in different places.

Experiment [1] relates to human embryonic stem cell line H1. The note with it: end of stage 5, real-time PCR. Here is the method: (§1) Cells of the human embryonic stem cell line H1, at passage 51 were cultured on […]™ coated dishes (1:30 dilution) and exposed to DMEM/F12 medium supplemented with 0.5% FBS, and 100 ng/ml Activin-A (R&D Systems, MN) plus 20 ng/ml WNT-3a (Catalog #1324-WN-002, R&D Systems, MN), for two days followed by treatment with DMEM/F12 media supplemented with 2% FBS and 100 ng/ml Activin-A (AA) for an additional two days. Next the cultures were treated with DMEM/F12+2% FBS+20 ng/ml FGF7+0.25 μm Cyclopamine-KAAD (#239804, Calbiochem, CA) for three days followed by four day incubation in DMEM/F12+1% B27 (Invitrogen, CA)+20 ng/ml FGF7+0.25 μm Cyclopamine-KAAD+2 μm Retinoic acid (RA) (Sigma, MO).
Next, the cells were cultured in DMEM/F12+1% B27 (Invitrogen, CA)+50 ng/ml Exendin-4 (Sigma, MO)+1 μm DAPT (Calbiochem, CA) for six days followed by additional three days incubation in DMEM/F12+1% B27 (Invitrogen, CA)+50 ng/ml Exendin-4 (Sigma, MO)+50 ng/ml IGF (Peprotech, N.J.)+50 ng/ml HGF (R&D Systems, MN). Some of the cultures were treated with 1 μM of the following compounds at either stage 3, stage 4, or stages 3+4: MEK/MAPK inhibitor (2′-Amino-3′-methoxyflavone) (PD98059, Calbiochem, CA), RAF kinase inhibitor (5-Iodo-3-R3,5-dibromo-4-hydroxyphenyl)methylenel-2-indolinone) (#553008, Calbiochem, CA), SMAD3 inhibitor (6,7-Dimethyl-2-((2E)-3-(1-methyl-2-phenyl-1Hpyrrolo[2,3-b]pyridin-3-yl-prop-2-enoyl))-1,2,3,4-tetrahydroisoquinoline) (#566405, Calbiochem, CA), AKT inhibitor (1L6-Hydroxymethyl-chiroinositol-2-(R)-2-O-methyl-3-O-octadecyl-sn-glycerocarbonate) (#124005, Calbiochem, CA), MEK inhibitor (#444937 Calbiochem, CA), and TGF-B receptor I inhibitor (2-(3-(6-Methylpyridin-2-yl)-1H-pyrazol-4-yl)-1,5-naphthyridine) (inhibits activin receptor-like kinase 5, #616452, Calbiochem, CA).
(In general: Real-time PCR tracks product formation cycle by cycle.)

The test system is the same in experiment [2]. Particulars: end of stage 5, real-time PCR. The procedure: as §1, with “44” for “51”
Next, cells were cultured in DMEM/F12+1% B27 (Invitrogen, CA)+50 ng/ml Exendin-4 (Sigma, MO)+1 μm DAPT (Calbiochem, CA) for six days followed by additional three days incubation in DMEM/F12+1% B27 (Invitrogen, CA)+50 ng/ml Exendin-4 (Sigma, MO)+50 ng/ml IGF (Peprotech, N.J.)+50 ng/ml HGF (R&D Systems, MN). Some of the cultures were treated with 1 μM of TGF-B receptor I kinase inhibitor (2-(3-(6-Methylpyridin-2-yl)-1H-pyrazol-4-yl)-1,5-naphthyridine) (an inhibitor of activin receptor-like kinase 5, #616452, Calbiochem, CA) at stage 4, stage 5, or stages 4 and 5.
The source holds these as a separate data set.

Experiment [3] shares this test system. The note with it: 1-10 μm at stages 4 and 5; end of stages 4 to 5; compared to controls (standard treatment). Here is the method: Next the cultures were treated with DMEM/F12+2% FBS+20 ng/ml FGF7+0.25 μm Cyclopamine-KAAD (#239804, Calbiochem, CA) for three days followed by four day incubation in DMEM/F12+1% B27 (Invitrogen, CA)+20 ng/ml FGF7+0.25 μm Cyclopamine-KAAD+2 μm Retinoic acid (RA) (Sigma, MO).
Next, cells were cultured in DMEM/F12+1% B27 (Invitrogen, CA)+50 ng/ml Exendin-4 (Sigma, MO)+1 μm DAPT (Calbiochem, CA) for six days followed by additional three days incubation in DMEM/F12+1% B27 (Invitrogen, CA)+50 ng/ml Exendin-4 (Sigma, MO)+50 ng/ml IGF (Peprotech, N.J.)+50 ng/ml HGF (R&D Systems, MN).

Experiment [4] has the same test system. The experiment is described as follows: Real-time PCR of markers, Noggin at stages 3-4, Netrin-4 and ALK5 inhibitor II at stage 4 (Example 8). It is filed as cell-based.
Experiment [5] has the same test system. As to the kind of experiment: Real-time PCR of markers, Noggin at stage 3 with ALK5 inhibitor II at stages 4 and 5 (Example 6). It is filed as cell-based.
Experiment [6] has the same test system. As to the kind of experiment: Real-time PCR of markers, Noggin at stages 3 and/or 4 with ALK5 inhibitor II at stages 4 and 5 (Example 7). It is filed as cell-based. The source says:
FIGS. 8A-8D depict a phase contrast image of the cultures according to the above protocol. In some of the cultures, stage 5 was extended from 3 days to 21 days. By day 10-12 of culture in stage 5 media, there were distinct clusters of cells resembling human islets present throughout the culture plate. FIGS. 8A-8B show images of day 6 cultures in stage 5 while FIGS. 8C-8D show images of day 12 stage 5 cultures. Some of the clusters were manually removed, plated on 1:30 […]-coated plates in stage 5 media. After 2 days of incubation, the clusters were stained for insulin and glucagon. The majority of the cells in the clusters as shown in FIGS. 9A-9B were positive for human insulin. In order to further optimize the dose of the BMP inhibitor, Noggin; cultures were treated at stage 2-4 with 0, 10, 50, or 100 ng/ml of Noggin. FIG. 10 depicts expression of NGN3 at stage 4 for cultures treated with varying doses of Noggin at stages 2-4.

Setting [7] is: 1 μM added at stage 4 or stages 3 and 4.
[8] abbreviates: 1 μM added at stage 4 or stages 4 and 5.
[9] abbreviates: omission of Noggin at stage 4, Netrin-4 plus Alk5 inhibitor added, end of stage 5.
The mark [10] stands for this setting: Noggin at both stages 3 and 4, compared to untreated samples.

Take `Cc1cccc(-c2n[nH]cc2-c2ccc3ncccc3n2)n1` [ALK5 inhibitor II, 2-(3-(6-Methylpyridin-2-yl)-1H-pyrazol-4-yl)-1,5-naphthyridine]: the “expression of PDX-1” value in experiment [1] (setting [7]) and in experiment [2] (setting [8]) was “marginally affecting” throughout. Also, the “expression of insulin, glucagon, NeuroD, and NKX2.2” value in experiment [1] (setting [7]) and in experiment [2] (setting [8]) was “significantly enhanced” throughout. The “expression of endocrine markers” value in experiment [1] (1 μM added only at stage 3) and in experiment [2] (1 μM added only at stage 5) was “marginally upregulated” throughout. Moreover, in experiment [3], the “expression of insulin, glucagon, PDX-1 and NeuroD” value is listed as “significantly enhanced”.

B1: Noggin: recombinant human Noggin, BMP inhibitor (R & D Systems) (protein, UniProt Q13253 28-232, looked up)
Noggin: QHYLHIRPAPSDNLPLVDLIEHPDPIFDPKEKDLNETLLRSLLGGHYDPGFMATSPPEDRPGGGGGAAGGAEDLAELDQLLRQRPSGAMPSEIKGLEFSEGLAQGKKQRLSKKLRRKLQMWLWSQTFCPVLYAWNDLGSRFWPRYVKVGSCFSKRSCSVPEGMVCKPSKSVHLTVLRWRCQRRGGQRCGWIPIQYPIISECKCSC
B1: in experiment [4] (setting [9]), the “expression of NGN3, NKX2.2, and NeuroD” value is given as “significantly reduce”; the “expression of insulin and glucagon” value was “moderately affecting”. Also, in experiment [5] (100 ng/ml at stage 3, compared to untreated samples), the “expression of albumin and CDX2” value is “significantly suppressing”. Further, the “expression of insulin and glucagon” value in experiment [5] (100 ng/ml at stage 3, end of stage 4, 1 μm ALK5 inhibitor II at stages 4 and 5) is reported as “marginally enhanced”. For the same molecule, in experiment [5] (500 ng/ml at stage 3), the “expression of PDX-1” value is reported as “did not affect”; the “expression of endocrine markers, along with albumin and CDX2” value is reported as “significantly diminish”. The “expression of insulin and glucagons” value in experiment [6] (100 ng/ml Noggin at stage 3+4 plus ALK5 inhibitor II, stages 4-5) is recorded as “dramatically enhanced”. Moreover, in experiment [6] (setting [10]), the “expression of NGN3” value is on record as “significantly enhanced”; the “expression of albumin and CDX2” value is “significantly suppressing”. In addition, the “Noggin concentration resulting in maximal expression of NGN3 at stage 4” value in experiment [6] (cultures treated at stage 2-4 with 0, 10, 50, or 100 ng/ml) fell in the range of 50 to 100 ng/mL.

B2: Netrin-4: netrin protein added at 100 ng/ml (R&D Systems) (protein, UniProt Q9HB63 19-628, looked up)
Netrin-4: GLSGVAGVSSRCEKACNPRMGNLALGRKLWADTTCGQNATELYCFYSENTDLTCRQPKCDKCNAAYPHLAHLPSAMADSSFRFPRTWWQSAEDVHREKIQLDLEAEFYFTHLIVMFKSPRPAAMVLDRSQDFGKTWKPYKYFATNCSATFGLEDDVVKKGAICTSKYSSPFPCTGGEVIFKALSPPYDTENPYSAKVQEQLKITNLRVQLLKRQSCPCQRNDLNEEPQHFTHYAIYDFIVKGSCFCNGHADQCIPVHGFRPVKAPGTFHMVHGKCMCKHNTAGSHCQHCAPLYNDRPWEAADGKTGAPNECRTCKCNGHADTCHFDVNVWEASGNRSGGVCDDCQHNTEGQYCQRCKPGFYRDLRRPFSAPDACKPCSCHPVGSAVLPANSVTFCDPSNGDCPCKPGVAGRRCDRCMVGYWGFGDYGCRPCDCAGSCDPITGDCISSHTDIDWYHEVPDFRPVHNKSEPAWEWEDAQGFSALLHSGKCECKEQTLGNAKAFCGMKYSYVLKIKILSAHDKGTHVEVNVKIKKVLKSTKLKIFRGKRTLYPESWTDRGCTCPILNPGLEYLVAGHEDIRTGKLIVNMKSFVQHWKPSLGRKVMDILKRECK
As for B2, the “expression of NGN3, NeuroD, and Pax4” value in experiment [4] (100 ng/ml Netrin-4 and ALK5 inhibitor II at stage 4 plus 100 ng/ml Noggin at stage 3 and 4) was “dramatically enhanced”.
